Measured values reported in IntAct's records for PubMed 25173175.

B1: Cohesin subunit SA-2 (Homo sapiens), Q8N3U4 (parent)
chain: MIAAPEIPTDFNLLQESETHFSSDTDFEDIEGKNQKQGKGKTCKKGKKGPAEKGKGGNGGGKPPSGPNRMNGHHQQNGVENMMLFEVVKMGKSAMQSVVDDWIESYKHDRDIALLDLINFFIQCSGCKGVVTAEMFRHMQNSEIIRKMTEEFDEDSGDYPLTMAGPQWKKFKSSFCEFIGVLVRQCQYSIIYDEYMMDTVISLLTGLSDSQVRAFRHTSTLAAMKLMTALVNVALNLSINMDNTQRQYEAERNKMIGKRANERLELLLQKRKELQENQDEIENMMNAIFKGVFVHRYRDAIAEIRAICIEEIGIWMKMYSDAFLNDSYLKYVGWTMHDKQGEVRLKCLTALQGLYYNKELNSKLELFTSRFKDRIVSMTLDKEYDVAVQAIKLLTLVLQSSEEVLTAEDCENVYHLVYSAHRPVAVAAGEFLYKKLFSRRDPEEDGMMKRRGRQGPNANLVKTLVFFFLESELHEHAAYLVDSMWDCATELLKDWECMNSLLLEEPLSGEEALTDRQESALIEIMLCTIRQAAECHPPVGRGTGKRVLTAKEKKTQLDDRTKITELFAVALPQLLAKYSVDAEKVTNLLQLPQYFDLEIYTTGRLEKHLDALLRQIRNIVEKHTDTDVLEACSKTYHALCNEEFTIFNRVDISRSQLIDELADKFNRLLEDFLQEGEEPDEDDAYQVLSTLKRITAFHNAHDLSKWDLFACNYKLLKTGIENGDMPEQIVIHALQCTHYVILWQLAKITESSSTKEDLLRLKKQMRVFCQICQHYLTNVNTTVKEQAFTILCDILMIFSHQIMSGGRDMLEPLVYTPDSSLQSELLSFILDHVFIEQDDDNNSADGQQEDEASKIEALHKRRNLLAAFCKLIVYTVVEMNTAADIFKQYMKYYNDYGDIIKETMSKTRQIDKIQCAKTLILSLQQLFNEMIQENGYNFDRSSSTFSGIKELARRFALTFGLDQLKTREAIAMLHKDGIEFAFKEPNPQGESHPPLNLAFLDILSEFSSKLLRQDKRTVYVYLEKFMTFQMSLRREDVWLPLMSYRNSLLAGGDDDTMSVISGISSRGSTVRSKKSKPSTGKRKVVEGMQLSLTEESSSSDSMWLSREQTLHTPVMMQTPQLTSTIMREPKRLRPEDSFMSVYPMQTEHHQTPLDYNRRGTSLMEDDEEPIVEDVMMSSEGRIEDLNEGMDFDTMDIDLPPSKNRRERTELKPDFFDPASIMDESVLGVSMF
partner: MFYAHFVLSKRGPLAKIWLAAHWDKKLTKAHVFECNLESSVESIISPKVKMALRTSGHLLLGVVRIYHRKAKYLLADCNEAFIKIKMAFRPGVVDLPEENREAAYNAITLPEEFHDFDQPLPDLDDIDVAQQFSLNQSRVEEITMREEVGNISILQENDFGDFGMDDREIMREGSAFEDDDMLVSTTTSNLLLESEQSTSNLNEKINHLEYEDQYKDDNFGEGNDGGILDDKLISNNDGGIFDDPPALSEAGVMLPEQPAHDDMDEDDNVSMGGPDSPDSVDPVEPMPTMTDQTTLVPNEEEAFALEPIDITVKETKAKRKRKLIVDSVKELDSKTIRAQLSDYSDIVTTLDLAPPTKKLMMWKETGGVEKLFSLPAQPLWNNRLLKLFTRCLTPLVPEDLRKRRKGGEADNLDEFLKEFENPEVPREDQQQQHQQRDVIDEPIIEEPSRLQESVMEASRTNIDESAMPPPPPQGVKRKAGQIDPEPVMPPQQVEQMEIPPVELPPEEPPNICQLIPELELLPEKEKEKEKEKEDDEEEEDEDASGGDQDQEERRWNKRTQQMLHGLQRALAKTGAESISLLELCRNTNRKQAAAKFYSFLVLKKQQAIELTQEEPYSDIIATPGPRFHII
B2: Double-strand-break repair protein rad21 homolog (Homo sapiens), O60216 (parent)
chain: B1 partner
partner: B1 chain
B3: Cohesin subunit SA-2 (Homo sapiens), Q8N3U4 (parent)
chain: B1 chain
partner: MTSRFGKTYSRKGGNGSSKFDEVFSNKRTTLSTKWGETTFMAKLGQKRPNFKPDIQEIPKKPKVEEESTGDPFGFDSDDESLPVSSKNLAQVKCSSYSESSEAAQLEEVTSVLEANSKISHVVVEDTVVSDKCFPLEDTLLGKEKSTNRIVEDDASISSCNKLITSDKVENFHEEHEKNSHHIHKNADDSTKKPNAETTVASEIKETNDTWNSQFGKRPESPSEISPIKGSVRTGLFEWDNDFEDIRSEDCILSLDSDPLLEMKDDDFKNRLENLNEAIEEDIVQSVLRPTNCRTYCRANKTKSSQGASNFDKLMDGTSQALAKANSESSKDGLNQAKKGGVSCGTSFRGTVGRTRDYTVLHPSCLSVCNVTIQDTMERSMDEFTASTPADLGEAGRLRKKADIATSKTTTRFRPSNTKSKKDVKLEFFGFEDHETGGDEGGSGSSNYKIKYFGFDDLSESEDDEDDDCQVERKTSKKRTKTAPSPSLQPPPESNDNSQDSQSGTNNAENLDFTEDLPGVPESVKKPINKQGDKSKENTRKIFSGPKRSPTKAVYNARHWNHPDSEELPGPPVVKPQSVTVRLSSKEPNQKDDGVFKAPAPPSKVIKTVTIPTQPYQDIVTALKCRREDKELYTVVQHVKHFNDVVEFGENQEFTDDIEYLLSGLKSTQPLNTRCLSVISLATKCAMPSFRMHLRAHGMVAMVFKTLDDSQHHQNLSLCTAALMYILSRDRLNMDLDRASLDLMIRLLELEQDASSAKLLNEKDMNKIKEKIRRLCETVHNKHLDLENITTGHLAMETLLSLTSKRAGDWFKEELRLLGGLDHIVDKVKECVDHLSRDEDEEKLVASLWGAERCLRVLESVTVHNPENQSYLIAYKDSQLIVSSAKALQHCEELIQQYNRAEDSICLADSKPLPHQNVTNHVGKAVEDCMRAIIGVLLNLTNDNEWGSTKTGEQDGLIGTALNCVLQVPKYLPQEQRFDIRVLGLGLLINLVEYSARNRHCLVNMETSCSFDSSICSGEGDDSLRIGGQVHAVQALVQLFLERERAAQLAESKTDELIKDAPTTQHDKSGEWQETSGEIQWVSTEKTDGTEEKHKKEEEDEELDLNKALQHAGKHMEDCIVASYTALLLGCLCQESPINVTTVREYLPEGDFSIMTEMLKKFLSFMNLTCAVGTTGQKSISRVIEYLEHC

Variants of: B1
Details: with rad21_human RAD21, O60216

Variant | effect of a mutation on the interaction
D793K | disrupting interaction strength

Variants of: B2
Details: with stag2_human STAG2, Q8N3U4

Variant | effect of a mutation on the interaction
D327K | decreasing interaction strength

Variants of: B2
Details: with stag2_human STAG2, Q8N3U4
Remark: another data set of the same source

Variant | effect of a mutation on the interaction
L385A;L388A;F389A | disrupting interaction strength

Variants of: B3
Details: with wapl_human WAPL

Variant | effect of a mutation on the interaction
W334A | decreasing interaction strength
D326K | disrupting interaction strength
K330E | disrupting interaction strength
K290E | disrupting interaction strength
